Among the data in PMC3798605, “Independent Pathways Can Transduce the Life-Cycle Differentiation Signal in Trypanosoma brucei” (PLoS Pathogens, 2013) are kon, koff and Kd values, retold here.

This experiment deals with TbPTP1. Kind of experiment: SPR. The conditions noted are these: 2 mM citrate, 25°C, 10 mM HEPES, pH 7.4, 150 mM NaCl, 0.05% P20, 2 mM DTT, 20 mM MgCl2; for kon: parent: 0.0012; for koff: parent: 0.05; for Kd: parent: 42.

A word on the kon: it is the rate constant with which the complex forms. What is called koff is the first-order rate constant of dissociation. What is called Kd is the constant that tells how readily two partners part at equilibrium. In the case of TbPIP39 wild type T63A; V64A, the kon came out at 1100 M⁻¹ s⁻¹, the off-rate constant (koff) was determined as 0.03 s⁻¹ and the Kd worked out at 30 µM.
In the case of TbPIP39 wild type DD mutant, the kon turned out to be 1200 M⁻¹ s⁻¹, the koff turned out to be 0.05 s⁻¹ and the Kd turned out to be 42 µM.
For TbPIP39 wild type D57A, in that order: 1300 M⁻¹ s⁻¹, 0.04 s⁻¹ and 31 µM.
